# Reference: patent US11504441B2, “Radiolabeled compounds targeting the prostate-specific membrane antigen” (PROVINCIAL HEALTH SERVICES AUTHORITY, priority 2019, dated 2022)
# Tests used:
# in vivo = conditions: male, NODSCID 1L2RγKO, mouse, iv, total radioactivity
# Protocol: (§1) LNCaP cell line was obtained from ATCC (LNCaP clone FGC, CRL-1740). […] Cells were cultured in PRM I 1640 medium supplemented with 10% FBS, penicillin (100 U/mL) and streptomycin (100 μg/mL) at 37° C. in a humidified incubator containing 5% CO2. Cells grown to 80-90% confluence were then washed with sterile phosphate-buffered saline (1× PBS pH 7.4) and collected by trypsinization. The collected cells concentration was counted with a Hausser Scientific (Horsham, Pa.) Hemacytometer.
# (§2) Imaging and biodistribution experiments were performed using NODSCID 1 L2RγKO male mice. Mice were anesthetized by inhalation with 2% isoflurane in oxygen, and implanted subcutaneously with 1×10^7 LNCaP cells behind left shoulder. Mice were imaged or used in biodistribution studies when the tumor grew up to reach 5-8 mm in diameter during 5-6 weeks.
# (§3) PET imaging experiments were conducted using Siemens Inveon micro PET/CT scanner. Each tumor bearing mouse was injected 6-8 MBq of Ga-68 labeled tracer through the tail vein under anesthesia (2% isoflurane in oxygen). The mice were allowed to recover and roam freely in their cage. After 50 min, the mice were sedated again with 2% isoflurane in oxygen inhalation and positioned in the scanner. A 10-min CT scan was conducted first for localization and attenuation correction after segmentation for reconstructing the PET images. Then, a 10-min static PET imaging was performed to determined uptake in tumor and other organs. The mice were kept warm by a heating pad during acquisition. For biodistribution studies, the mice were injected with the radiotracer as described above. The mice was anesthetized with 2% isoflurane inhalation, and euthanized by CO2 inhalation. Blood was withdrawn immediately from the heart, and the organs/tissues of interest were collected. The collected organs/tissues were weighed and counted using a Perkin Elmer (Waltham, Mass.) Wizard2 2480 gamma counter. The uptake in each organ/tissue was normalized to the injected dose using a standard curve, and expressed as the percentage of the injected dose per gram of tissue (% ID/g).
# (§4) LNCaP cell line was obtained from ATCC (LNCaP clone FGC, CRL-1740). […] Cells were cultured in PRM I 1640 medium supplemented with 10% FBS, penicillin (100 U/mL) and streptomycin (100 μg/mL) at 37° C. in a humidified incubator containing 5% CO2. Cells grown to 80-90% confluence were then washed with sterile phosphate-buffered saline (1× PBS pH 7.4), and collected by trypsinization. The collected cell concentration was counted with a Hausser Scientific (Horsham, Pa.) Hemacytometer.
# (§5) Imaging and biodistribution experiments were performed using NODSCID 1L2RγKO male mice. Mice were anesthetized by inhalation with 2% isoflurane in oxygen, and implanted subcutaneously with 1×10^7 LNCaP cells behind left shoulder. Mice were imaged or used in biodistribution studies when the tumor grew up to reach 5-8 mm in diameter during 5-6 weeks.
# (§6) PET imaging experiments were conducted using Siemens Inveon micro PET/CT scanner. Each tumor bearing mouse was injected 6-8 MBq of Ga-68 or F-18 labeled tracer through the tail vein under anesthesia (2% isoflurane in oxygen). The mice were allowed to recover and roam freely in their cage. After 50 min, the mice were sedated again with 2% isoflurane in oxygen inhalation and positioned in the scanner. A 10-min CT scan was conducted first for localization and attenuation correction after segmentation for reconstructing the PET images. Then, a 10-min static PET imaging was performed to determined uptake in tumor and other organs.
# (§7) For biodistribution studies, the mice were injected with the radiotracer as described above.
# [1] = system: PSMA-expressing LNCaP cancer xenografts; conditions: mouse, in vivo
# Protocol: as §1, §2, §3, §4, §5, §6, §7
# [2] = system: PSMA-expressing LNCaP cancer xenografts; design: species or system mice; conditions: mouse, in vivo, iv
# Protocol: as §2
# PET imaging experiments were conducted using Siemens Inveon micro PET/CT scanner. Each tumor bearing mouse was injected 6-8 MBq of Ga-68 labeled tracer through the tail vein under anesthesia (2% isoflurane in oxygen). The mice were allowed to recover and roam freely in their cage. After 50 min, the mice were sedated again with 2% isoflurane in oxygen inhalation and positioned in the scanner. […] Then, a 10-min static PET imaging was performed to determined uptake in tumor and other organs. […] The collected organs/tissues were weighed and counted using a Perkin Elmer (Waltham, Mass.) Wizard2 2480 gamma counter. The uptake in each organ/tissue was normalized to the injected dose using a standard curve, and expressed as the percentage of the injected dose per gram of tissue (% ID/g). […]
# PET imaging experiments were conducted using Siemens Inveon micro PET/CT scanner. […] Then, a 10-min static PET imaging was performed to determined uptake in tumor and other organs.
structure (smiles),measurement,setting,value
"O=C(O)CCC[C@H](NC(=O)N[C@@H](CCCCNC(=O)[C@H](Cc1c2ccccc2cc2ccccc12)NC(=O)[C@H]1CC[C@H](CNC(=O)CN2CCN(CC(=O)O)CCN(CC(=O)O)CCN(CC(=O)O)CC2)CC1)C(=O)O)C(=O)O [68Ga-HTK03149, metal not drawn]",tissue uptake at 1 h,in vivo; Adrenal glands uptake,0.46 ± 0.26 %ID/g
same,tissue uptake at 3 h,in vivo; Adrenal glands uptake,0.46 ± 0.16 %ID/g
same,tissue uptake at 1 h,in vivo; Blood uptake,0.96 ± 0.17 %ID/g
same,tissue uptake at 3 h,in vivo; Blood uptake,0.35 ± 0.14 %ID/g
same,tissue uptake at 1 h,in vivo; Bone uptake,0.1 ± 0.03 %ID/g
same,tissue uptake at 1 h,in vivo; Brain uptake,0.02 ± 0.01 %ID/g
same,tissue uptake at 3 h,in vivo; Brain uptake,0.02 ± 0.01 %ID/g
same,tissue uptake at 1 h,in vivo; Fat uptake,0.22 ± 0.16 %ID/g
same,tissue uptake at 3 h,in vivo; Fat uptake,0.16 ± 0.09 %ID/g
same,tissue uptake at 1 h,in vivo; Heart uptake,0.29 ± 0.07 %ID/g
same,tissue uptake at 3 h,in vivo; Heart uptake,0.09 ± 0.02 %ID/g
same,tissue uptake at 1 h,in vivo; Intestine uptake,0.3 ± 0.07 %ID/g
same,tissue uptake at 3 h,in vivo; Intestine uptake,0.18 ± 0.04 %ID/g
same,tissue uptake at 1 h,in vivo; Kidneys uptake,6.79 ± 4.91 %ID/g
same,tissue uptake at 3 h,in vivo; Kidneys uptake,2.33 ± 1.02 %ID/g
same,tissue uptake at 1 h,in vivo; Lacrimal uptake,0.1 ± 0.03 %ID/g
same,tissue uptake at 3 h,in vivo; Lacrimal uptake,0.21 ± 0.2 %ID/g
same,tissue uptake at 1 h,in vivo; Liver uptake,0.35 ± 0.17 %ID/g
same,tissue uptake at 3 h,in vivo; Liver uptake,0.13 ± 0.02 %ID/g
same,tissue uptake at 1 h,in vivo; Lungs uptake,0.82 ± 0.37 %ID/g
same,tissue uptake at 3 h,in vivo; Lungs uptake,0.22 ± 0.05 %ID/g
same,tissue uptake at 1 h,in vivo; Muscle uptake,0.14 ± 0.04 %ID/g
same,tissue uptake at 3 h,in vivo; Muscle uptake,0.05 ± 0.02 %ID/g
same,tissue uptake at 1 h,in vivo; Pancreas uptake,0.17 ± 0.03 %ID/g
same,tissue uptake at 3 h,in vivo; Pancreas uptake,0.06 ± 0.02 %ID/g
same,tissue uptake at 1 h,in vivo; Salivary uptake,0.23 ± 0.05 %ID/g
same,tissue uptake at 3 h,in vivo; Salivary uptake,0.15 ± 0.13 %ID/g
same,tissue uptake at 1 h,in vivo; Seminal uptake,6.46 ± 7.52 %ID/g
same,tissue uptake at 3 h,in vivo; Seminal uptake,1.19 ± 1.04 %ID/g
same,tissue uptake at 1 h,in vivo; Spleen uptake,0.37 ± 0.12 %ID/g
same,tissue uptake at 3 h,in vivo; Spleen uptake,0.24 ± 0.07 %ID/g
same,tissue uptake at 1 h,in vivo; Stomach uptake,0.09 ± 0.04 %ID/g
same,tissue uptake at 3 h,in vivo; Stomach uptake,0.03 ± 0.01 %ID/g
same,tissue uptake at 1 h,in vivo; Tail uptake,0.86 ± 0.47 %ID/g
same,tissue uptake at 3 h,in vivo; Tail uptake,0.13 ± 0.06 %ID/g
same,tissue uptake at 1 h,in vivo; Testes uptake,0.38 ± 0.16 %ID/g
same,tissue uptake at 3 h,in vivo; Testes uptake,0.11 ± 0.03 %ID/g
same,tissue uptake at 1 h,in vivo; Thyroid uptake,0.29 ± 0.08 %ID/g
same,tissue uptake at 3 h,in vivo; Thyroid uptake,0.1 ± 0.04 %ID/g
same,tissue uptake at 1 h,in vivo; Tumor uptake,22.1 ± 13.9 %ID/g
same,tissue uptake at 3 h,in vivo; Tumor uptake,33.5 ± 10.7 %ID/g
same,excreta dose per gram or mL at 1 h,in vivo; Urine uptake,336 ± 127 %ID/g
same,excreta dose per gram or mL at 3 h,in vivo; Urine uptake,148 ± 102 %ID/g
same,Adrenal glands uptake,"[1]; male, NODSCID 1L2RγKO, iv, 1 h",0.33 ± 0.11 % ID/g
same,Blood uptake,"[1]; male, NODSCID 1L2RγKO, iv, 1 h",0.70 ± 0.17 % ID/g
same,Kidneys uptake,"[1]; male, NODSCID 1L2RγKO, iv, 1 h",4.15 ± 1.46 % ID/g
same,Liver uptake,"[1]; male, NODSCID 1L2RγKO, iv, 1 h",0.25 ± 0.06 % ID/g
same,Lungs uptake,"[1]; male, NODSCID 1L2RγKO, iv, 1 h",0.53 ± 0.09 % ID/g
same,Seminal uptake,"[1]; male, NODSCID 1L2RγKO, iv, 1 h",3.66 ± 5.36 % ID/g
same,Spleen uptake,"[1]; male, NODSCID 1L2RγKO, iv, 1 h",0.27 ± 0.05 % ID/g
same,Stomach uptake,"[1]; male, NODSCID 1L2RγKO, iv, 1 h",0.07 ± 0.01 % ID/g
same,Tail uptake,"[1]; male, NODSCID 1L2RγKO, iv, 1 h",0.58 ± 0.14 % ID/g
same,Thyroid uptake,"[1]; male, NODSCID 1L2RγKO, iv, 1 h",0.20 ± 0.05 % ID/g
same,Tumor uptake,"[1]; male, NODSCID 1L2RγKO, iv, 1 h",19.1 ± 6.37 % ID/g
same,Urine uptake,"[1]; male, NODSCID 1L2RγKO, iv, 1 h",319 ± 183 % ID/g
same,Blood: Salivary ratio,[1],3.21 ± 0.64
same,activity in other organs in PET images,[2],very low activity in other organs
